One experiment deals with UACC melanoma cells. The experiment can be described thus: TEM8 antibody efficacy in UACC melanoma model. It counts as in vivo, mouse. Conditions: 15 mg/kg, 3 times per week for 3-4 weeks; start at 50 mm^3. The protocol: UACC melanoma cells were cultured and injected subcutaneously into mice. Treatment was initiated with a tumor volume of 50 mm^3, and treatment groups consisted of one of four TEM8 antibodies (M825, M830, M863, and M822), each dosed at 15 mg/kg, 3 times per week for 3-4 weeks.

Experiment [1] relates to MC38 colon carcinoma liver metastasis. The experiment can be described thus: M830 in MC38 colon carcinoma liver metastasis model. Format: in vivo, C57BL/6 mice. From the text:
C57BL/6 mice were challenged with MC38 colon carcinoma liver metastasis by intrasplenic injections of cultured cells.

Experiment [2] concerns H460 non-small cell lung carcinoma xenograft. Put plainly: M830 in the H460 non-small cell lung carcinoma xenograft model. It counts as in vivo, mouse. Conditions: combination partner Paclitaxel. The method, then: Tumor cells were cultured in RPMI-1640 medium supplemented with 10% fetal bovine serum, 2 mM glutamine, 100 units/mL penicillin G sodium, 100 μg/mL streptomycin sulfate, and 25 μg/mL gentamicin. The tumor cells were grown in tissue culture flasks in a humidified incubator at 37° C., in an atmosphere of 5% CO2 and 95% air.
Criteria for Regression Responses
Animals were monitored for regression responses.
The statistical tests were not adjusted for multiple comparisons.
Cultured H460 cells were harvested during exponential growth and resuspended in phosphate buffered saline at a concentration of 1×10^8 cells/mL. 1.0×10^7 tumor cells were injected subcutaneously into the flank of athymic nude mice. Animals were euthanized when tumors reached the pre-determined volume endpoint of 2000 mm^3 or on the final day (Day 88), whichever came first. […] Each treatment produced a significant survival difference versus controls (P<0.01). The median TTE for controls was 22.8 days, establishing a maximum possible TGD of 65.2 days (286%) for the 88-day study.

B1: M830: anti-TEM8 monoclonal antibody (hIgG1); VH SEQ ID NO:5, VL SEQ ID NO:6 (antibody, V domains shown)
VH: EVQLVESGGGVVQPGRSVRLSCAASGFTFSTYTMHWVRQAPGKGLEWVAIISNDGSNKYYADPVRGRFTISRDNSKNTLYLQMNSLRAEDTAVYYCVRGSSWYRGNWFDPWGQGTLVTVSS
VL: DIQMTQSPSSLSASVGDRVTIACRASQTISRYLNWYQQKPGKAPKLLIYAASSLQSGVSSRFSGSGSGTEFTLTISSLQPEDFATYFCQQTYSPPITFGQGTRLEIKR
modifications: TEM830 mAb VH; TEM830 mAb VL
For B1, the “effect on tumor growth in the UACC melanoma model” value in the experiment on UACC melanoma cells is listed as “effective at slowing tumor growth”. The effect on survival result in experiment [1] (P=0.0001) is “significantly improved the survival”. The molecule further showed a median survival in experiment [1] (vehicle 11 days) of 17 days. For the same molecule, the “regression (at Day 21, vs. vehicle column)” value in experiment [2] is on record as “(−61%”.

The values are drawn from patent publication US11034757B2, “Combination therapies using agents that target tumor-associated stroma or tumor cells and tumor vasculature” (BIOMED VALLEY DISCOVERIES, INC., priority 2014, dated 2021).
